From paper PMC9220312 come the findings set out here.

The target in this assay is mouse thrombomodulin (endogenous, lung) (mouse (endogenous in mouse lung)) (UniProt P15306).
Sequence of UniProt P15306 (P15306 17-577): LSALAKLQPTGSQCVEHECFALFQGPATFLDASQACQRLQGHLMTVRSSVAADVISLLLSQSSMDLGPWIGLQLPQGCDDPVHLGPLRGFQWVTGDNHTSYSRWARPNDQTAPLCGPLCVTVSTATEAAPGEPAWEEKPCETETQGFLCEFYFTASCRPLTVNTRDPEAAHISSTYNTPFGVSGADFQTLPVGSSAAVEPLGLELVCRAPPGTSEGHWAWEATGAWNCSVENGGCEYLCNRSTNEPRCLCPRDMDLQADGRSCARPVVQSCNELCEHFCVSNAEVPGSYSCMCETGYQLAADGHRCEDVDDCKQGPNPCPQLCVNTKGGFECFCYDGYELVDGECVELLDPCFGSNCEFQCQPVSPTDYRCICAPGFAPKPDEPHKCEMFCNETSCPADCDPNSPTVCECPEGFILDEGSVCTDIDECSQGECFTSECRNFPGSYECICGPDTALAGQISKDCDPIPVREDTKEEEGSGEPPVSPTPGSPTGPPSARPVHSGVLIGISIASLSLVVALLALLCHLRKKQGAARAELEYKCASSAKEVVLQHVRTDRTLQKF

Substance “recombinant human His-tagged fragment of Angiopoietin-2 (ab220589, Abcam) (from UniProt O15123 19-496) (domain or fragment)” had a tail bleeding time in mice 2 h after i.p. injection of 8 nmol human ANGPT2 of 50%.
